From EP2123670B1 come the findings set out here.

What is called kon is the second-order rate constant of association. Higher therefore signals faster complex formation. One may read the koff as a measure of how fast the partners let go of each other. The low end stands for a long-lived complex, the high end for a short-lived complex.

Holding throughout (conditions): remark: other sources report otherwise
Experiment [1] addresses T1, factor XIIa, P00748.
T1 chain: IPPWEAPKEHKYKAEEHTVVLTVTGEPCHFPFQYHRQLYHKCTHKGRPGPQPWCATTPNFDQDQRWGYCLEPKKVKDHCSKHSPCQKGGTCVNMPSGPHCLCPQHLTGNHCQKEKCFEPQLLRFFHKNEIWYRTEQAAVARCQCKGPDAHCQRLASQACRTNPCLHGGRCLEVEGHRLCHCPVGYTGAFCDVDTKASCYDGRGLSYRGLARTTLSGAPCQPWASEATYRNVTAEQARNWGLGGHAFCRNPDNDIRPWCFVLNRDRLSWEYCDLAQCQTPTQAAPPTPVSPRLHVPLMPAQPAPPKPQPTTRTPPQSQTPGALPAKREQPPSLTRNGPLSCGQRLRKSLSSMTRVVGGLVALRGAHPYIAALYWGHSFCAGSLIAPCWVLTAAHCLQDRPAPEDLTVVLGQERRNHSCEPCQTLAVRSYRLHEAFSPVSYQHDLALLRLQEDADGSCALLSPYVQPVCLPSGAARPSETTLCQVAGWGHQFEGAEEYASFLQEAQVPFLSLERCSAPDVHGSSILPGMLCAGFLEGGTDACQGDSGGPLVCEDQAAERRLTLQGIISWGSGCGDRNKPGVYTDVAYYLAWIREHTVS
In words: SPR, Ir-CPI immobilised; two-state model, backward rate of the conformation change. For orientation: SPR reads the build-up and loss of mass on a sensor chip optically.

Experiment [2] addresses T1, factor XIIa, P00748. In words: SPR (BIAcore X), Ir-CPI immobilised at about 200 RU, factor injected at 5-300 nM; two-state model, ka1 (first step).
Experiment [3] has as its target T1, factor XIIa, P00748. Put plainly: SPR, Ir-CPI immobilised; two-state model, forward rate of the conformation change.
The target of experiment [4] is T1, factor XIIa, P00748. Put plainly: SPR (BIAcore X), Ir-CPI immobilised at about 200 RU, factor injected at 5-300 nM; two-state model, kd1 (first step).
For experiment [5], the target named is T1, factor XIIa, P00748. Put plainly: SPR, Ir-CPI immobilised; two-state model, global equilibrium constant K = ka1ka2/kd1kd2.

B1: Ir-CPI, Q9GP15 20-86 (protein)
chain: ANHKGRGRPAKCKLPPDDGPCRARIPSYYFDRKTKTCKEFMYGGCEGNENNFENITTCQEECRAKKV
Molecule B1 registered a kd2 in experiment [1] of 0.105 s⁻¹. In experiment [2], this molecule returned a kon of 219000 M⁻¹ s⁻¹. Moreover, the ka2 in experiment [3] came out at 0.655 s⁻¹. For the same molecule, the off-rate (koff) in experiment [4] was determined as 0.0946 s⁻¹. The molecule further had a Ka in experiment [5] of 1.68e+08 M⁻¹.
